Assay results taken from paper PMC3634029 (PLoS ONE, 2013).

Biological target: T1, Full-length recombinant FVIII (Kogenate FS) (Homo sapiens, UniProt P00451)
T1 construct: coagulation factor VIII, human, full-length recombinant (Kogenate FS); also called coagulation factor VIII; source: provided by Bayer Healthcare (Kogenate FS), reconstituted and dialyzed into Borate Buffer
Assay: ELISA; FVIII (6.6 nM in PBS) coated; Bo2C11 serially diluted 1:3 from 60 nM; detected by anti-human IgG
Details: both partners purified

T1 sequence (P00451 20-2351): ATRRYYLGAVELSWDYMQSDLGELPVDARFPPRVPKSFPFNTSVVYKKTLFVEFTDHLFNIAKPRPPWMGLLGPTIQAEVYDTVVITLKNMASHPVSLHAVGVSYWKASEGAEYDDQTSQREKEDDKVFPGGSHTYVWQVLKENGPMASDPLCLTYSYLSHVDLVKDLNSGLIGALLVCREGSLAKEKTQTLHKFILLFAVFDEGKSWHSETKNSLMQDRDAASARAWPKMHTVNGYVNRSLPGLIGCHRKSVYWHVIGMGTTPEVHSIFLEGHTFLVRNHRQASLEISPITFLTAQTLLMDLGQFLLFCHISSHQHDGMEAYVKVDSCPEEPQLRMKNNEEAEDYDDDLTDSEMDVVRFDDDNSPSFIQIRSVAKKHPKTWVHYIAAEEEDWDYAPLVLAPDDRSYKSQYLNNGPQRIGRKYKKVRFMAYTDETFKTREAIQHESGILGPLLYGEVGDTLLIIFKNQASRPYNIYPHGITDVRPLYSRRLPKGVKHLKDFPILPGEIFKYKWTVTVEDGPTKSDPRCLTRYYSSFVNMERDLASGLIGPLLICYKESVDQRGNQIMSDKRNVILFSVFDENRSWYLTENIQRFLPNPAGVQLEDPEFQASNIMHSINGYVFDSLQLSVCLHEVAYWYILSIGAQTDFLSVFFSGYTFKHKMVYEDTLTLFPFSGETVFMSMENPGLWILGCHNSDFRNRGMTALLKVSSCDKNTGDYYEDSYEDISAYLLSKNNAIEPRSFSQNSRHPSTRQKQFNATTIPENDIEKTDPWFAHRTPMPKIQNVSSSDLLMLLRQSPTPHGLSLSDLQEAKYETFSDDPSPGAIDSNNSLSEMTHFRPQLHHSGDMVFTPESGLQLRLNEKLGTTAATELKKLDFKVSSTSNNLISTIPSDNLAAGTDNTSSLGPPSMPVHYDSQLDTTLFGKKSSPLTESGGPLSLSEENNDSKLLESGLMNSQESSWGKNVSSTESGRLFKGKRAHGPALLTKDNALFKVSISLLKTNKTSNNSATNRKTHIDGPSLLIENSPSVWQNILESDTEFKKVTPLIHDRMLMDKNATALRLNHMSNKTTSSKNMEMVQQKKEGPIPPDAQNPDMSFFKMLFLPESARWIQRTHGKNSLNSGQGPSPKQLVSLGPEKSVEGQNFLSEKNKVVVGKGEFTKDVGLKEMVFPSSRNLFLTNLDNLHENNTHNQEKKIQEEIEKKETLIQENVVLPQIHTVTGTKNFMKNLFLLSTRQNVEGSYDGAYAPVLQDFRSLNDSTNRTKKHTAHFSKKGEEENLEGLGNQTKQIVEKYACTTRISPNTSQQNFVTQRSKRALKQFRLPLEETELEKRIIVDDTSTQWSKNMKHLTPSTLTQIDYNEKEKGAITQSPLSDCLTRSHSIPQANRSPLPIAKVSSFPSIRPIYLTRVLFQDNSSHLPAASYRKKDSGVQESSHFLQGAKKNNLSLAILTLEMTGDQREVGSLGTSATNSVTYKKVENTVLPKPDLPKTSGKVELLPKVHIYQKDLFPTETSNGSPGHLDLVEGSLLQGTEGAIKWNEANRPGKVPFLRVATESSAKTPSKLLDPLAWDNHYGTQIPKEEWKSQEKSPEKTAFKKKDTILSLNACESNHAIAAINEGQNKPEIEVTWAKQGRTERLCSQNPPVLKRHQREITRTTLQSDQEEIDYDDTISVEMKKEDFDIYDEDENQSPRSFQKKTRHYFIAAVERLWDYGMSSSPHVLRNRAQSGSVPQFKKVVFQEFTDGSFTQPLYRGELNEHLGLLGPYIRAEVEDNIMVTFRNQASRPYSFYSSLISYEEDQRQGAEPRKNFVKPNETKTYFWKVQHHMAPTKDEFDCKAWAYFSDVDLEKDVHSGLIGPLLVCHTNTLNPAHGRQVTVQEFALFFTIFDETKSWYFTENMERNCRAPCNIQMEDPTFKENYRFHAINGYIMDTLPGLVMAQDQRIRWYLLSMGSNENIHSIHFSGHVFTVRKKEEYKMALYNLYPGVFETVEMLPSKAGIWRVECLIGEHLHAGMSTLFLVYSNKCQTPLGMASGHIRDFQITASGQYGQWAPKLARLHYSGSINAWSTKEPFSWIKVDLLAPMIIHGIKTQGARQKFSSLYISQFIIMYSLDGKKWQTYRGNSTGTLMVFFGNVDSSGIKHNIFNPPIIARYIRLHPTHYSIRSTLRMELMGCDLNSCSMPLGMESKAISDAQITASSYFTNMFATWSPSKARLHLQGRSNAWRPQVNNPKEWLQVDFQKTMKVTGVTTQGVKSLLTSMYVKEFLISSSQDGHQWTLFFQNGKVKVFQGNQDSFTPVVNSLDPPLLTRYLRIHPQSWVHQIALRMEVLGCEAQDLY

B1: human monoclonal anti-FVIII antibody Bo2C11 (antibody, V domains shown)
VH: QVQLVQSGAEVKKPGASVKVSCKVSGYTLTELPVHWVGQAPGKGLEWVGSFDPESGESIYAREFQGSVTMTADTSTDIAYMELSSLRSDDTAVYYCAVPDPDAFDIWGQGTMVTVSS
VL: EIALTQSPGTLSLSPGERATLSCRASQSFSSSYLAWYQQKPGQAPRLLIYGASTRATGIPDRFSGSGSGTDFTLTISRLEPEDFAVYYCQKYGTSAITFGQGTRLEIK
EC50: 2.66 nM
